From article PMC3541276

Key:
[1] = biological target: rabbit muscle G-actin (rabbit) (UniProt P68135); assay: ITC; 20°C; TbCof (0.15 mM, syringe) injected into ADP-G-actin (0.015 mM, cell); ADP-G-buffer: 10 mM Tris, 0.2 mM CaCl2, 0.2 mM ADP, 2.0 mM BME, pH 7.4 (low ionic strength); one-site model
[2] = biological target: rabbit muscle G-actin (rabbit) (UniProt P68135); assay: ITC; 20°C; TbCof (0.28 mM, syringe) injected into ATP-G-actin (0.028 mM, cell); ATP-G-buffer: 10 mM Tris, 0.2 mM CaCl2, 0.2 mM ATP, 2.0 mM BME, pH 7.4 (low ionic strength); one-site model

Substance: ADF/cofilin from Trypanosoma brucei (TbCof), His6 tag cleaved with TEV protease (natural protein)
- Kd [1]: 80 nM
- dH [1]: -9.48 kcal/mol
- stoichiometry N [1]: 1
- Kd [2]: 360 nM
- dH [2]: -3.93 kcal/mol
- stoichiometry N [2]: 1
